# “Also recorded” adds a separate entry of the source. Where two headings read alike, the source gives them in different places.
# Columns and labels:
# [1] = test system: H1975 cells expressing human HGF; test: H1975-HGF xenograft tumor efficacy; assay type: in vivo, nude mice; conditions: H1975-HGF NSCLC, day 16; mAbs 10 mg/kg BIWx3wk, erlotinib 50, afatinib 15 mg/kg QDx21d
# H1975 cells = test: H1975 xenograft tumor efficacy; assay type: in vivo, nude mice; conditions: H1975 NSCLC, day 18, mAbs 10 mg/kg BIWx3wk, erlotinib 50, afatinib 15 mg/kg QDx21d
# [2] = test system: H292-HGF human lung cancer xenograft
# Description: (§1) The H292-HGF cells were maintained in vitro in RPMI1640 medium supplemented with fetal bovine serum (10% v/v), and L-glutamine (2 mM) at 37° C. in an atmosphere of 5% CO2 in air. The cells were routinely subcultured twice weekly by trypsin-EDTA treatment. The cells growing in an exponential growth phase were harvested and counted for tumor inoculation.
# (§2) Each mouse was inoculated subcutaneously at the right flank region with H292-HGF tumor cells (2×10^6) in 0.1 ml of PBS with Cultrex (1:1) for tumor development. The treatments were started when the mean tumor size reached 139 mm^3. […] The date of tumor cell inoculation was denoted as day 0.
# (§3) Before commencement of treatment, all animals were weighed and the tumor volumes were measured. Since the tumor volume can affect the effectiveness of any given treatment, mice were assigned into groups using randomized block design based upon their tumor volumes. […] The randomized block design was used to assign experimental animals to groups. First, the experimental animals were divided into homogeneous blocks according to their initial tumor volume. Secondly, within each block, randomization of experimental animals to treatments was conducted.
# (§4) At the time of routine monitoring, the animals were checked for any effects of tumor growth and treatments on normal behavior, such as mobility, visual estimation of food and water consumption, body weight gain/loss (body weights were measured twice weekly), eye/hair matting and any other abnormal effect.
# (§5) The endpoint was whether tumor growth can be delayed or tumor bearing mice can be cured. Tumor size was measured twice weekly in two dimensions using a caliper, and the volume was expressed in mm^3 using the formula: V=0.5 a×b^2 where a and b are the long and short diameters of the tumor, respectively. The tumor size was then used for calculations of both T-C and T/C values. T-C was calculated with T as the time (in days) required for the mean tumor size of the treatment group to reach 1000 mm^3, and C was the time (in days) for the mean tumor size of the control group to reach the same size. The T/C value (in percent) was an indication of antitumor efficacy; T and C were the mean tumor volume of the treated and control groups, respectively, on a given day. Complete tumor regression (CR) is defined as tumors that are reduced to below the limit of palpation (62.5 mm^3) Partial tumor regression (PR) is defined as tumors that are reduced from initial tumor volume. A minimum duration of CR or PR in 3 or more successive tumor measurements is required for a CP or PR to be considered durable.
# (§6) Animals for which the body weight loss exceeded 20%, or for which the mean tumor size of the group exceeds 2000 mm^3 were euthanized. The study was terminated after two weeks of observation after the final dose.
# (§7) Statistical analyses of difference in tumor volume among the groups were evaluated using a one-way ANOVA followed by individual comparisons using Games-Howell (equal variance not assumed). All data were analyzed using SPSS 18.0. p<0.05 was considered to be statistically significant.
# [3] = test system: H292-HGF human lung cancer xenograft; test: H292-HGF human lung cancer xenograft: bispecific molecule versus other EGFR and c-Met inhibitors; conditions: mouse, in vivo
# Description: as §1, §2, §3, §4, §5, §6, §7
# NCI-H3255 cells = test: cells; conditions: Homo sapiens, […] HGF
# Description: NCI-H3255 and HCC-827 cells were plated as described above in “Inhibition of Human Tumor Cell Growth or Viability by Antibodies”. […] Some wells were left untreated with either HGF or antibodies as controls. Cells were incubated at 37° C., 5% CO2 for 72 hours, then viable cells were detected using CellTiter-Glo® reagent (Promega), and data were analyzed as described above in “Inhibition of Human Tumor Cell Growth (NCI-H292 growth and NCI-H322 growth assay)”.
# EGFR = molecular target: T1, EGFR (Homo sapiens, UniProt P00533); test: Inhibition of EGFR phosphorylation in NCI-H441 cells; assay type: cell-based
# T1 construct: endogenous in cells; host or cells: NCI-H441
# Description: NCI-H292, NCI-H441, or NCI-H596 cells were plated in 96 well plates in RPMI medium containing 10% FBS. 24 hours later, medium was replaced with serum free RPMI. […] Cells were treated for 1 h with the monospecific or bispecific molecules and then stimulated with EGF, HGF, or a combination of EGF and HGF for 15 minutes at 37° C., 5% CO2. Cells were lysed with MSD Lysis Buffer and cell signaling was assessed using appropriate MSD Assay plates, according to manufacturer's instructions, as described above.
# [4] = mouse, in vivo, ip
# Description: SCID Beige mice were subcutaneously inoculated with NCI-H292 cells expressing human HGF (2.0×10^6 cells in Cultrex (Trevigen) in a volume of 200 μL) on the dorsal flank of each animal. Tumor measurements were taken twice weekly until tumor volumes ranged between 150-250 mm^3. Mice were then given a single i.p. dose of bispecific EGFR/c-Met molecules (linked to an albumin binding domain to increase half-life) or PBS vehicle. At 6 h or 72 h after dosing, tumors were extracted and immediately frozen in liquid nitrogen. […] Tumors were weighed, cut into small pieces, and lysed in Lysing Matrix A tubes (LMA) containing RIPA buffer with HALT protease/phosphatase inhibitors (Pierce), 50 mM sodium fluoride (Sigma), 2 mM activated sodium orthovanadate (Sigma), and 1 mM PMSF (MesoScale Discovery). Lysates were removed from LMA matrix and centrifuged to remove insoluble protein. The soluble tumor protein was quantified with a BCA protein assay and diluted to equivalent protein levels in tumor lysis buffer. Phosphorylated c-Met, EGFR and ERK were measured using assay plates from MesoScale Discovery (according to Manufacturer's protocol and as described above).
# [5] = test system: NCI-H292 cells expressing human HGF; test: H292-HGF xenograft tumor efficacy with four bispecific FN3 molecules; assay type: in vivo, SCID Beige mice; conditions: 25 mg/kg three times per week
# Description: One week after implantation, mice were stratified into groups with equivalent tumor volumes (mean tumor volume=77.9+/−1.7 mm^3) Mice were dosed three times per week with the bispecific molecules and tumor volumes were recorded twice weekly.
molecule,measurement,setting,value
CN(C)C/C=C/C(=O)Nc1cc2c(Nc3ccc(F)c(Cl)c3)ncnc2cc1O[C@H]1CCOC1 [afatinib],% TGI (day of study); compared to PBS vehicle,[1],29 (16) %
same,% TGI (day of study); compared to PBS vehicle,H1975 cells,57 (18) %
same,% TGI (day of study); compared to PBS vehicle,H1975 cells; listed as Afatinib,57%
"C[C@@H](Oc1cc(-c2cnn(C3CCNCC3)c2)cnc1N)c1c(Cl)ccc(F)c1Cl [crizotinib, reference compound]",Tumor volume (mm^3),[2]; day 7 (start of treatment),140 ± 9 mm^3
same,Antitumor activity / response,"[2]; mouse, in vivo",no antitumor activity
same,T − C (days) at 1000 mm^3,[2]; tumor growth delay vs vehicle,-1 days
same,Tolerability / body weight loss,[3],More severe body weight loss
C#Cc1cccc(Nc2ncnc3cc(OCCOC)c(OCCOC)cc23)c1 [erlotinib],% TGI (day of study); compared to PBS vehicle,[1],20 (16) %
same,% TGI (day of study); compared to PBS vehicle,H1975 cells,9 (18) %
same,IC50,"NCI-H3255 cells; NCI-H3255, NCI-H3255, low attachment culture",47.1 nM
same,IC50,"NCI-H3255 cells; NCI-H3255, NCI-H3255, standard 2D culture",122 nM
same,Tolerability / body weight loss,[3],More severe body weight loss
"ECB5: bispecific FN3: P53A1R5-17v2-(GGGGS)4-P114AR7P94-A3, SEQ ID NO: 54 (protein, bispecific EGFR/cMet binding molecule) MLPAPKNLVVSEVTEDSARLSWADPHGFYDSFLIQYQESEKVGEAIVLTVPGSERSYDLTGLKPGTEYTVSIYGVHNVYKDTNMRGLPLSAIFTTGGGGSGGGGSGGGGSGGGGSMLPAPKNLVVSRVTEDSARLSWTAPDAAFDSFWIRYFEFLGSGEAIVLTVPGSERSYDLTGLKPGTEYVVNIMGVKGGKISPPLSAIFTT","Fold decrease of IC50 for inhibition of EGFR phosphorylation, bispecific vs monospecific EGFR-binding FN3 domain",EGFR,30 fold
"ECB39: bispecific FN3 with albumin binding domain: P53A1R5-17v2/P114AR7P94-A3, SEQ ID NO: 121 (protein, Bispecific EGFR/c-Met binding molecule) MLPAPKNLVVSEVTEDSARLSWADPHGFYDSFLIQYQESEKVGEAIVLTVPGSERSYDLTGLKPGTEYTVSIYGVHNVYKDTNMRGLPLSAIFTTAPAPAPAPAPLPAPKNLVVSRVTEDSARLSWTAPDAAFDSFWIRYFEFLGSGEAIVLTVPGSERSYDLTGLKPGTEYVVNIMGVKGGKISPPLSAIFTTAPAPAPAPAPLAEAKVLANRELDKYGVSDYYKNLINNAKTVEGVKALLDEILAALP",Tumor accumulation,[4],significantly more tumor accumulation at 6 hours relative to the other molecules
same,Tumor growth inhibition,[5],showed the most efficacy
"ECB38: bispecific FN3 with albumin binding domain: P54AR4-83v2/P114AR7P94-A3, SEQ ID NO: 120 (protein, Bispecific EGFR/c-Met binding molecule) MLPAPKNLVVSEVTEDSARLSWDDPWAFYESFLIQYQESEKVGEAIVLTVPGSERSYDLTGLKPGTEYTVSIYGVHNVYKDTNMRGLPLSAIFTTAPAPAPAPAPLPAPKNLVVSRVTEDSARLSWTAPDAAFDSFWIRYFEFLGSGEAIVLTVPGSERSYDLTGLKPGTEYVVNIMGVKGGKISPPLSAIFTTAPAPAPAPAPLAEAKVLANRELDKYGVSDYYKNLINNAKTVEGVKALLDEILAALP",Tumor growth inhibition,[5],showed the most efficacy
same,Mice in which the treatment was tolerated,"[2]; 25 mg/kg, 3 times/week×3 weeks",7 out of 10
same,Tumor volume (mm^3),[2]; day 7 (start of treatment),137 ± 7 mm^3
same,Tumor volume (mm^3),[2]; day 9,142 ± 7 mm^3
same,Tumor volume (mm^3),[2]; day 13,83 ± 6 mm^3
same,Tumor volume (mm^3),[2]; day 16,44 ± 7 mm^3
same,Tumor volume (mm^3),[2]; day 20,30 ± 6 mm^3
same,Tumor volume (mm^3),[2]; day 27,21 ± 5 mm^3
same,Tumor volume (mm^3),[2]; day 30,23 ± 6 mm^3
same,Tolerability / body weight loss,"[2]; mouse, in vivo",Slight toxicity
same,Antitumor activity / response,"[2]; mouse, in vivo, listed as bispecific EGFR/c-Met molecule",complete tumor regression (CR) in all mice; also recorded: complete response
